Measurements as given in PMC5153698.

Target: T1, human chemokine receptor CXCR4, C-terminally tagged with Rluc8 or mVenus (human), P61073
T1 chain: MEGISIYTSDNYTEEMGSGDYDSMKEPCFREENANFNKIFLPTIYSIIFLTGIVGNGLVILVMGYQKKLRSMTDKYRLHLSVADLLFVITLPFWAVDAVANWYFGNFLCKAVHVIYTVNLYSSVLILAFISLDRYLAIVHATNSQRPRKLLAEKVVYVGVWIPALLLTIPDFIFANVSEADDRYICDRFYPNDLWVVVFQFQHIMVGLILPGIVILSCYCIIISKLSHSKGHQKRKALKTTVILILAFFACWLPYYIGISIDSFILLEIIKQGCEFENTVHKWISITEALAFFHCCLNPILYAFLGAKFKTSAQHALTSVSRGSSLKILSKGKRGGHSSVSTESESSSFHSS
Assay: FRET or BRET
Conditions: remark: other sources report otherwise

B1: human chemokine receptor CXCR4, C-terminally tagged with Rluc8 or mVenus, P61073 1-352 (receptor)
chain: MEGISIYTSDNYTEEMGSGDYDSMKEPCFREENANFNKIFLPTIYSIIFLTGIVGNGLVILVMGYQKKLRSMTDKYRLHLSVADLLFVITLPFWAVDAVANWYFGNFLCKAVHVIYTVNLYSSVLILAFISLDRYLAIVHATNSQRPRKLLAEKVVYVGVWIPALLLTIPDFIFANVSEADDRYICDRFYPNDLWVVVFQFQHIMVGLILPGIVILSCYCIIISKLSHSKGHQKRKALKTTVILILAFFACWLPYYIGISIDSFILLEIIKQGCEFENTVHKWISITEALAFFHCCLNPILYAFLGAKFKTSAQHALTSVSRGSSLKILSKGKRGGHSSVSTESESSSFHSS
BRET50: 0.11
